Assay results as given in patent publication WO2018039626A1 (dated 2018).

B1: sdA1 (human single domain antibody targeting CD16A) (VHH)
VHH: EVQLVESGGGLVQPGGSLRLSCAASGFTFSNYGMSWVRQAPGKGLEWIGSIYYSGGSTNYNPSLKGSLVISRDNSKNTLYLQMNSLAEDTATYYCARESIDYWGQGTLVTVSS
notes: Human VH single domain (VH3-23 scaffold), not camelid; Purified by Ni-NTA and detected with anti-Flag-HRP, so His and Flag tags were present; also called sdAl; D6
B2: sdA2 (human single domain antibody targeting CD16A) (VHH)
VHH: EVQLVESGGGLVQPGGSLRLSCAASGFTFSSYGMSWVRQAPGKGLEWIGEVNHSGGSTNYNPSLKGSFVISRDNSKNTLYLQMNSLAEDTAVYYCARVGSFDFWGQGTLVTVSS
notes: Human VH single domain; His and Flag tags are implied (Ni-NTA, anti-Flag-HRP); also called E11; El 1

Target: T1, recombinant CD16A ectodomain (human, UniProt P08637 17-208)
T1 construct: extracellular domain
T1 sequence (P08637 17-208): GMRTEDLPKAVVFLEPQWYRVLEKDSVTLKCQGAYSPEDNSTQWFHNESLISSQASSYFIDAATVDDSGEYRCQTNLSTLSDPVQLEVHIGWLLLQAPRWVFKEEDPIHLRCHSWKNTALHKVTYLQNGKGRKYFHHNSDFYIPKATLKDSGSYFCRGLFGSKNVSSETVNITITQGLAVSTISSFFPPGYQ
Assay: ELISA, CD16A ectodomain coated at 50 ng/well, sdA detected with anti-Flag-HRP

Row | Binder | EC50 [nM]
1 | B1 | 0.1
2 | B2 | 0.3
